# Legend:
# [1] = biological target: sLif, soluble form of Pseudomonas aeruginosa lipase-specific foldase Lif that lacks the transmembrane domain (TMD) (Pseudomonas aeruginosa); test: other fluorescence titration; sLif / sLif_(Y99A) labelled with BDP FL (1.2 nM label, total about 24 nM) with 0-50 uM LipA overnight at 4 °C in 10 mM glycine buffer pH 9; steady-state anisotropy and average translational diffusion time (FCS) on a confocal microscope (sLif_(Y99A): diffusion time only); 1:1 binding model; apparent KD
# [2] = biological target: sLif_(Y99A), variant of soluble P. aeruginosa Lif with Y99 mutated to alanine (Pseudomonas aeruginosa); test: as above
substance,measurement,setting,value
"lipase LipA of Pseudomonas aeruginosa, pre-active form refolded in vitro (enzyme)",Kd,[1],29 nM
same,Kd,[2],77 nM

# Source: PMC7046727
